Measurements reported in patent US20180326022A1, “COMPOSITIONS AND METHODS FOR IMPROVING HEART FUNCTION AND TREATING HEART FAILURE” (The Trustees of the University of Pennsylvania, priority 2017, published 2018).

Target: detyrosinated microtubules (rat cardiomyocytes) (rat)
Assay: cell-based or functional assay

Detyr (% cell area), immunofluorescence, TTL overexpressing cells (null: 43.9): 12.9 % cell area
Substance: human tubulin tyrosine ligase (TTL) (from UniProt Q8NG68 1-377)
